The results in this text go back to IntAct's records for PubMed 29541021.

The target of one test is 1433f_human YWHAH (UniProt Q04917).
A further test concerns the target dnm1l_human DNM1L (UniProt O00429).

dnm1l_human DNM1L, sequence (O00429 whole entry): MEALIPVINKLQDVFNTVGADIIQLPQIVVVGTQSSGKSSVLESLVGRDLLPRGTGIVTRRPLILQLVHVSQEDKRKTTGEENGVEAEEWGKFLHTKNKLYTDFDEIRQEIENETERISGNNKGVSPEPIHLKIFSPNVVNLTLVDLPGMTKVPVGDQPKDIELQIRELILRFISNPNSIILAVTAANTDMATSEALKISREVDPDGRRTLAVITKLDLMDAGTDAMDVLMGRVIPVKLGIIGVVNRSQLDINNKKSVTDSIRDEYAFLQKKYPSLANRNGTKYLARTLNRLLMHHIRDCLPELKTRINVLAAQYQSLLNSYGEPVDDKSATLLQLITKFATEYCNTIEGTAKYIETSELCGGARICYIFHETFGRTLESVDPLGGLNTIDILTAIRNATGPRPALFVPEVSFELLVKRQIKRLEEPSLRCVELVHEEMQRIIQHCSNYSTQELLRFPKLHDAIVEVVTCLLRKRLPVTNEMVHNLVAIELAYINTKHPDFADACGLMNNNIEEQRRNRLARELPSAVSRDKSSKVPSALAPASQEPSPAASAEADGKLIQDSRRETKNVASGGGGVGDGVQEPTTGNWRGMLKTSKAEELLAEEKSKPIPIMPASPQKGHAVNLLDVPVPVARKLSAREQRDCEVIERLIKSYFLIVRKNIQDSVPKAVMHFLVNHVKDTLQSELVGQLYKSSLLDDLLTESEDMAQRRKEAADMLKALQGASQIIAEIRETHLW
1433f_human YWHAH, sequence (Q04917 whole entry): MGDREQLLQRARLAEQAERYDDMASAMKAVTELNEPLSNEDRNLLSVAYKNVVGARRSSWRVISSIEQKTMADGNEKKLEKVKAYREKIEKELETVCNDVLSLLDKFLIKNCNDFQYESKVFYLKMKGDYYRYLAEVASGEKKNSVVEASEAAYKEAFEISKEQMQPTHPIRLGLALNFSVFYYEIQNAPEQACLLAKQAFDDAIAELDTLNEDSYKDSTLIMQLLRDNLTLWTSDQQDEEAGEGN

“Leucine-rich repeat serine/threonine-protein kinase 2 (Homo sapiens), Q5S007 E193K”: the figures for the “effect of a mutation on the interaction” value in the test with 1433f_human YWHAH and with dnm1l_human DNM1L were “decreasing interaction strength” and “increasing interaction strength”, respectively.
